Test results as given in patent publication US20240390506A1 (SUZHOU FUSE BIOSCIENCES, published 2024).

T1: human Fibroblast Activation Protein (FAP), soluble recombinant antigen (human, UniProt Q12884 26-760, biotinylated for BLI and panning (sites not given))
T1 construct: also called biotinylated FAP (Sino Biological); soluble FAP antigen
T1 sequence: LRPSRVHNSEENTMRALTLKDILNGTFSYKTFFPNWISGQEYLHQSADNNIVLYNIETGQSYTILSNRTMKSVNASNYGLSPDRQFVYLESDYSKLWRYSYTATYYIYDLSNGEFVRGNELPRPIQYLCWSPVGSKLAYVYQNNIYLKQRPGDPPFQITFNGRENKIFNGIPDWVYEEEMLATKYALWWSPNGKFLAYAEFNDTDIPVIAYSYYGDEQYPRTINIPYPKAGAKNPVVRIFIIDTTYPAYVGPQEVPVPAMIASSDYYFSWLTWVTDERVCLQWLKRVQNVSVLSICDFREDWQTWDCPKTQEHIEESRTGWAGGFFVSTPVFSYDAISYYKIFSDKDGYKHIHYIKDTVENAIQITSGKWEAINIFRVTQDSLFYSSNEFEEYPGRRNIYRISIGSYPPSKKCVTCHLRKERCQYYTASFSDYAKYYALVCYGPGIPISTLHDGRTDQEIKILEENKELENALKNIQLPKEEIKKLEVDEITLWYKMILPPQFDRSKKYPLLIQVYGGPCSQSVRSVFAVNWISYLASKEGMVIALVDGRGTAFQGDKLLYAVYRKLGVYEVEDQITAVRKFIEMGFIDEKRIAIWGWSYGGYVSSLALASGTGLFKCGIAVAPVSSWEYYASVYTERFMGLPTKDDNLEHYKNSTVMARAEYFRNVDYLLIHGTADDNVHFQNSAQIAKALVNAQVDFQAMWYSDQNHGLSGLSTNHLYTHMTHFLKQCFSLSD


Target: T1, human Fibroblast Activation Protein …
Experiment: BLI (Gator), biotinylated FAP on streptavidin sensor

Kd	koff	kon	Binder
6.6 nM	0.0028 s⁻¹	420000 M⁻¹ s⁻¹	872-5 (antibody, V domains shown) VH: EVQLVESGGGLVQPGGSLRLSCAASGFTFRGYIMSWVRQAPGKGLEWVSWISPEGSRTGYADSVKGRFTISRDNSKNTLYLQMNSLRAEDTAVYYCARLQYGTWFDYWGQGTLVTVSS VL: DIQMTQSPSSLSASVGDRVTITCRASQSISSYLNWYQQKPGKAPKLLIYAASSLQSGVPSRFSGSGSGTDFTLTISSLQPEDFATYYCQQATLLLPTFGQGTKVEIKR
15.5 nM	0.0056 s⁻¹	360000 M⁻¹ s⁻¹	872-59 (antibody, V domains shown) VH: EVQLVESGGGLVQPGGSLRLSCAASGFTFTSYAMSWVRQAPGKGLEWVSSIYSWYGTTSYADSVKGRFTISRDNSKNTLYLQMNSLRAEDTAVYYCARTISYSQYAYGYSFDYWGQGTLVTVSS VL: DIQMTQSPSSLSASVGDRVTITCRASQSISSYLNWYQQKPGKAPKLLIYAASSLQSGVPSRFSGSGSGTDFTLTISSLQPEDFATYYCQQAFTSPRTFGQGTKVEIKR
< 1 nM	–	110000 M⁻¹ s⁻¹	872-70 (antibody, V domains shown) VH: EVQLVESGGGLVQPGGSLRLSCAASGFTFSRYSMSWVRQAPGKGLEWVSYITSTDGTTDYADSVKGRFTISRDNSKNTLYLQMNSLRAEDTAVYYCARSQYGRYYSPDYYFDYWGQGTLVTVSS VL: DIQMTQSPSSLSASVGDRVTITCRASQSISSYLNWYQQKPGKAPKLLIYAASSLQSGVPSRFSGSGSGTDFTLTISSLQPEDFATYYCQQSRTSPYTFGQGTKVEIKR
